The data set deals with the molecule itself. Description: X-ray crystal structure, 3.2 A, molecular replacement; one dimer per asymmetric unit. The method, then: One crystal was mounted in a capillary and preliminary X-ray analysis was carried out in-house using a rotating-anode radiation source (Cu Kα radiation, 50 kV, 150 mA) and MAR345 image plate detector. The crystal, however, diffracted to only 8 Å resolution and the space group could not be accurately determined. All further X-ray analysis, as well as data collection, was carried out using synchrotron radiation at the beamline X11 (EMBL/DESY Hamburg, Germany) equipped with a MAR Research CCD detector. For data collection, the crystals were cryo-protected with 20% (v/v) glycerol and flash-frozen in a 100 K nitrogen stream. Diffraction data, collected from three different crystals, were processed with the program XDS. The solvent content and Matthews coefficient were calculated assuming a molecular weight of 90 kDa per monomer and using the CCP4 suite.
The structure of VAP-1 was solved by molecular replacement using the program AMORE (Navaza, 1994) of the CCP4i program suite (Collaborative Computational Project, 1994). This method confirmed that the space group of VAP-1 crystals was P6522 with one biological unit, a dimer per asymmetric unit. […]
Electron density maps were calculated with FFT of CCP4i suite and were predictable enough to trace the VAP-1 polypeptide, even though, at the beginning of building, in several fragments. […]

B1: human vascular adhesion protein-1 (VAP-1) (enzyme)
chain: MNQKTILVLLILAVITIFALVCVLLVGRGGDGGEPSQLPHCPSVSPSAQPWTHPGQSQLFADLSREELTAVMRFLTQRLGPGLVDAAQARPSDNCVFSVELQLPPKAAALAHLDRGSPPPAREALAIVFFGRQPQPNVSELVVGPLPHPSYMRDVTVERHGGPLPYHRRPVLFQEYLDIDQMIFNRELPQASGLLHHCCFYKHRGRNLVTMTTAPRGLQSGDRATWFGLYYNISGAGFFLHHVGLELLVNHKALDPARWTIQKVFYQGRYYDSLAQLEAQFEAGLVNVVLIPDNGTGGSWSLKSPVPPGPAPPLQFYPQGPRFSVQGSRVASSLWTFSFGLGAFSGPRIFDVRFQGERLVYEISLQEALAIYGGNSPAAMTTRYVDGGFGMGKYTTPLTRGVDCPYLATYVDWHFLLESQAPKTIRDAFCVFEQNQGLPLRRHHSDLYSHYFGGLAETVLVVRSMSTLLNYDYVWDTVFHPSGAIEIRFYATGYISSAFLFGATGKYGNQVSEHTLGTVHTHSAHFKVDLDVAGLENWVWAEDMVFVPMAVPWSPEHQLQRLQVTRKLLEMEEQAAFLVGSATPRYLYLASNHSNKWGHPRGYRIQMLSFAGEPLPQNSSMARGFSWERYQLAVTQRKEEEPSSSSVFNQNDPWAPTVDFSDFINNETIAGKDLVAWVTAGFLHIPHAEDIPNTVTVGNGVGFFLRPYNFFDEDPSFYSADSIYFRGDQDAGACEVNPLACLPQAAACAPDLPAFSHGGFSHN
modifications: topaquinone (Tpq471) formed by post-translational modification of an intrinsic tyrosine at 471; N-glycan attached to Asn232; one copper ion per monomer in the active site
notes: Full-length protein was crystallized; Only residues A55-A761 and B57-B761 are modelled in the structure, with a few gaps; PDB entries are printed as IPU4 (probably 1PU4) and 1US1; also called hVAP-1; HVAP-1
On to B1, for which the binding result is given as “binds”.

The values above are taken from patent publication US20070093646A1 (BIOTIE THERAPIES, published 2007).
